Data on 23 substances can be found in PMC4661472.

The target in assay [1] is TMD0^TAP1 L68C single-cysteine mutant (M553) (human). The assay can be described thus: cross-linking; crude membranes of M553 cells (tapasin-negative) transfected with single-Cys TMD0^TAP1 without tapasin; 1 mM Cu2+(phenanthroline)3, 10 min, 37 °C; non-reducing SDS-PAGE and immunoblot.
Assay [2] deals with TMD0^TAP1 L70C single-cysteine mutant (M553) (human). The assay is described as above.
Assay [3] has as its target TMD0^TAP1 L107C single-cysteine mutant (M553) (human). The assay is described as above.
The target of assay [4] is TMD0^TAP1 V34C single-cysteine mutant (M553) (human). Described as above.
Assay [5] concerns the target TMD0^TAP1 V67C single-cysteine mutant (M553) (human). The description is as above.
The target in assay [6] is TMD0^TAP1 W33C single-cysteine mutant (M553) (human). The description is as above.
Assay [7] concerns the target TMD0^TAP1 W69C single-cysteine mutant (M553) (human). The assay is described as above.
The target of assay [8] is tapasin (human), wild type, in HeLa cells (UniProt O15533). The assay is described as follows: co-immunoprecipitation with immunoblot densitometry. The note with it: transient transfection of HeLa cells; IP via C-terminal c-Myc tag of TMD0TAP1; three independent experiments. Background: A western blot detects proteins with antibodies after separation by electrophoresis.
Sequence of UniProt O15533 (O15533 21-448): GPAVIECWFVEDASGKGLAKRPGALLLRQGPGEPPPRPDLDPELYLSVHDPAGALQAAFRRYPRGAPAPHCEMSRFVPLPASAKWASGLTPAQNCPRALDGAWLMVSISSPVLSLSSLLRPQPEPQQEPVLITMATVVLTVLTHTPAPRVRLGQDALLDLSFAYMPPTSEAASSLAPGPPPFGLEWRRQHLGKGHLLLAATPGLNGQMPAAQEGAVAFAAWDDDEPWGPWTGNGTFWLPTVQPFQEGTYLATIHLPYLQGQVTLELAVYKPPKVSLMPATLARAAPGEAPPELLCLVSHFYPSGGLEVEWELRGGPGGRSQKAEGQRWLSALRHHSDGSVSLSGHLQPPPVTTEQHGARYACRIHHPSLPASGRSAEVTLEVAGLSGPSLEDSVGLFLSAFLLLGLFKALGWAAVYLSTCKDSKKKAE

Take “TMD0^TAP1 L68C single-cysteine mutant (M553) (domain or fragment)”: the stoichiometry N – broadly, a count of units in the complex or per binding partner – in assay [1] is 2.

For “TMD0^TAP1 L70C single-cysteine mutant (M553) (domain or fragment)”, the stoichiometry N in assay [2] came to 2.

As for “TMD0^TAP1 L107C single-cysteine mutant (M553) (domain or fragment)”, the stoichiometry N in assay [3] is 2.

“TMD0^TAP1 V34C single-cysteine mutant (M553) (domain or fragment)” yielded a stoichiometry N in assay [4] of 2.

As for “TMD0^TAP1 V67C single-cysteine mutant (M553) (domain or fragment)”, in assay [5], the stoichiometry N came to 2.

Substance “TMD0^TAP1 W33C single-cysteine mutant (M553) (domain or fragment)” gave a stoichiometry N in assay [6] of 2.

In assay [7], “TMD0^TAP1 W69C single-cysteine mutant (M553) (domain or fragment)” came in with a stoichiometry N of 2.

In assay [8], “TMD0^TAP1, parent of the single-cysteine mutants (Cys-less TAP background) A31C” had a response of 22%.

Substance “TMD0^TAP1, parent of the single-cysteine mutants (Cys-less TAP background) A106C” had a response in assay [8] of 42%.

The substance “TMD0^TAP1, parent of the single-cysteine mutants (Cys-less TAP background) A150C” gave a response in assay [8] of 25%.

Regarding “TMD0^TAP1, parent of the single-cysteine mutants (Cys-less TAP background) A151C”, in assay [8], the response turned out to be 47%.

Substance “TMD0^TAP1, parent of the single-cysteine mutants (Cys-less TAP background) D32C” returned a response in assay [8] of 0%.

In turn, “TMD0^TAP1, parent of the single-cysteine mutants (Cys-less TAP background) L68C” had a response in assay [8] of 51%.

On to “TMD0^TAP1, parent of the single-cysteine mutants (Cys-less TAP background) L70C”, for which the response in assay [8] was determined as 27%.

The substance “TMD0^TAP1, parent of the single-cysteine mutants (Cys-less TAP background) L105C” had a response in assay [8] of 26%.

Consider “TMD0^TAP1, parent of the single-cysteine mutants (Cys-less TAP background) L107C”, for which, in assay [8], the response came to 46%.

“TMD0^TAP1, parent of the single-cysteine mutants (Cys-less TAP background) L148C”: the response in assay [8] turned out to be 12%.

The substance “TMD0^TAP1, parent of the single-cysteine mutants (Cys-less TAP background) P108C” came in with a response in assay [8] of 29%.

Take “TMD0^TAP1, parent of the single-cysteine mutants (Cys-less TAP background) P149C”: the response in assay [8] was 86%.

In assay [8], “TMD0^TAP1, parent of the single-cysteine mutants (Cys-less TAP background) V34C” returned a response of 17%.

Turning to “TMD0^TAP1, parent of the single-cysteine mutants (Cys-less TAP background) V67C”, the response in assay [8] came out at 19%.

Regarding “TMD0^TAP1, parent of the single-cysteine mutants (Cys-less TAP background) W33C”, the response in assay [8] was 9%.

As for “TMD0^TAP1, parent of the single-cysteine mutants (Cys-less TAP background) W69C”, the response in assay [8] was found to be 81%.
